Assay results from patent US20230416329A1 (INSTITUTE OF MATERIA MEDICA CHINESE ACADEMY OF MEDICAL …, published 2023).
Bridge positions count the residues as written; N and C are the ends. Ends that are not written are not given here.

Columns and labels:
[1] = molecular target: porcine pancreatic elastase (porcine, UniProt P00772 27-266); assay: elastase inhibition, AAApNA substrate
Protocol: (§1) The substrates N-succinyl-Ala-Ala-Pro-Phe-p-nitroaniline (AAPFpNA), Nα—Benzoyl-L-arginine-4-nitroaniline hydrochloride (BApNA) and N-succinyl-[…] (AAApNA) are used in competitive binding reaction to determine the inhibitory activities against α-chymotrypsin, bovine trypsin, and porcine pancreatic elastase, respectively. Experiments for α-chymotrypsin and bovine trypsin inhibition were measured in 20 mM CaCl₂, 50 mM Tris-HCl buffer (pH 7.8), and that for porcine elastase inhibition was measured in 50 mM Tris-HCl buffer (pH 8.0). The concentration of the peptide was measured using optical density (OD) at 280 nm. The Michaelis constant (Kₘ) of the enzyme hydrolysis substrate is calculated from the initial rate of substrate hydrolysis at 405 nm. The absorbance value of the substrate was measured at 405 nm after complete hydrolysis. All data were processed using nonlinear regression.
(1) Added a total 190 μL of different concentrations of peptides (ECs) against elastase and reaction buffer (20 mM CaCl₂, 50 mM Tris-HCl buffer (pH 8.0)) into the pre-cold 96 well plate, followed by preheating at 37° C. for 5 min and centrifugated at 500 rpm for 1 min and allowed to stand for 4 minutes. […] Finally, added 2 μL of 100 mM AAApNA, and mixed by centrifugation at 500 rpm for 1 min. The plate was incubated at 37° C. for 60 min, and the absorbance value at 405 nm was measured. […]

[2] = molecular target: T1, bovine trypsin (bovine, UniProt P00760 24-246); assay: trypsin (50 nM) BApNA hydrolysis, OD405; peptide at 0.0488 µM
Protocol: as §1
(§2) (1) Added a total 190 μL of reaction buffer (20 mM CaCl₂ and 50 mM Tris-HCl, pH 7.8) along with different concentrations of anti-trypsin peptides (BTs) into the pre-cooled 96-well plate, followed by preheating at 37° C., and spined down at 500 rpm for 5 min. Next added 10 μL of 1 μM trypsin, incubated at 37° C., and then spined down at 500 rpm for 10 min. Finally, added 5 μL of 50 mM BApNA, and mixed by centrifugation at 500 rpm for 1 min. […] The experiment was performed in triplicate. The blank control only contained the reaction buffer and the substrate as the minimum absorption value (Min OD_{405 nm}). The negative control only contained the reaction buffer, the enzyme and the substrate as the maximum absorption value (Max OD_{405 nm}). […] (2) In the reaction system of 205 μL, the final concentrations of trypsin and BApNA were 50 nM and 1.22 mM, respectively. [0456] (3) Data statistics

[3] = molecular target: T1, bovine trypsin; assay: trypsin (50 nM) BApNA hydrolysis, OD405; peptide at 0.00098 µM
[4] = molecular target: T1, bovine trypsin; assay: trypsin (50 nM) BApNA hydrolysis, OD405; peptide at 0.98 µM
Protocol: as §1, §2

[5] = molecular target: T1, bovine trypsin; assay: trypsin (50 nM) BApNA hydrolysis, OD405; peptide at 0.0098 µM
Protocol: as §1, §2

[6] = molecular target: T1, bovine trypsin; assay: as above; remark: listed apart in the source
[7] = molecular target: T1, bovine trypsin; assay: trypsin (50 nM) BApNA hydrolysis, OD405; peptide at 0.00098 µM; remark: listed apart in the source
[8] = molecular target: T1, bovine trypsin; assay: trypsin (50 nM) BApNA hydrolysis, OD405; peptide at 0.0488 µM; remark: listed apart in the source
[9] = molecular target: T1, bovine trypsin; assay: trypsin (50 nM) BApNA hydrolysis, OD405; peptide at 0.98 µM; remark: listed apart in the source
[10] = molecular target: T1, bovine trypsin; assay: trypsin (50 nM) BApNA hydrolysis, OD405; peptide at 9.76 µM
[11] = molecular target: T1, bovine trypsin; assay: trypsin (50 nM) BApNA hydrolysis, OD405; peptide at 0.098 µM
[12] = molecular target: T1, bovine trypsin; assay: trypsin (50 nM) BApNA hydrolysis, OD405; peptide at 97.56 µM
Protocol: as §1, §2

[13] = molecular target: T1, bovine trypsin; assay: trypsin (50 nM) BApNA hydrolysis, OD405; peptide at 0.0780 µM
Protocol: as §1
(1) Added a total 190 μL of reaction buffer (20 mM CaCl₂ and 50 mM Tris-HCl, pH 7.8) along with different concentrations of anti-trypsin peptides (BTs) into the pre-cooled 96-well plate, followed by preheating at 37° C., and spined down at 500 rpm for 5 min. Next added 10 μL of 1 μM trypsin, incubated at 37° C., and then spined down at 500 rpm for 10 min. Finally, added 5 μL of 50 mM BApNA, and mixed by centrifugation at 500 rpm for 1 min. […] The experiment was performed in triplicate. […]

[14] = molecular target: T1, bovine trypsin; assay: trypsin (50 nM) BApNA hydrolysis, OD405; peptide at 0.000098 µM
Protocol: as §1, §2

[15] = molecular target: T1, bovine trypsin; assay: trypsin (50 nM) BApNA hydrolysis, OD405; peptide at 0.098 µM; remark: listed apart in the source
Protocol: as §1, §2

[16] = molecular target: T1, bovine trypsin; assay: trypsin (50 nM) BApNA hydrolysis, OD405; peptide at 9.76 µM; remark: listed apart in the source
Protocol: as §1, §2

T1 sequence (P00760 24-246): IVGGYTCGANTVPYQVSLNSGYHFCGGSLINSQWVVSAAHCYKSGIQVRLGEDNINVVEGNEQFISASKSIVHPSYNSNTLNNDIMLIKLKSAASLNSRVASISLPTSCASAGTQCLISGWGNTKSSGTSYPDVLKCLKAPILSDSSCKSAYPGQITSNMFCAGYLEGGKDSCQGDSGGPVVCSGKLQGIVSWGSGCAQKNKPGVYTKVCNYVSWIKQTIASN
Sequence of porcine pancreatic elastase (P00772 27-266 limits assumed): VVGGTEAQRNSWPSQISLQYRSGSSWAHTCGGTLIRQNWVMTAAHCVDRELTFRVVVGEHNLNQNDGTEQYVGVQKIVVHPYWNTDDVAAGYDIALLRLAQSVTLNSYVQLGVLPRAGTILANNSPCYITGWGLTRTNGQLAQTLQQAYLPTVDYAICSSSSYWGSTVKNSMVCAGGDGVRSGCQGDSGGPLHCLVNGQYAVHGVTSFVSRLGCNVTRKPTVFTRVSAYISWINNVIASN

CGLATLSIPPICQ (disulfide 1-12 (inferred)) [EC7]
binding result [1]: binds

LCTLSIPPQCY (disulfide 2-10 (inferred)) [EC2]
binding result [1]: binds

CGRATKSIPPICF (disulfide 1-12 (inferred), synthetic) [BT9]
Residual trypsin activity (%) [2]: 68.1% | Residual trypsin activity (%) [3]: 100% | Residual trypsin activity (%) [4]: -0.4% | Residual trypsin activity (%) [5]: 94.3% | Residual trypsin activity (%) [6]: 94.3% | Residual trypsin activity (%) [7]: 100% | Residual trypsin activity (%) [8]: 68.1% | Residual trypsin activity (%) [9]: -0.4%

CPRATKSIPPICF (disulfide 1-12 (inferred), synthetic) [BT66]
Residual trypsin activity (%) [10]: 0.1% | Residual trypsin activity (%) [6]: 106% | Residual trypsin activity (%) [7]: 105% | Residual trypsin activity (%) [8]: 66.8% | Residual trypsin activity (%) [9]: 0.1% | Residual trypsin activity (%) [11]: 4.8%

CGRSTKSIPPICF (disulfide 1-12 (inferred), synthetic) [BT47]
Residual trypsin activity (%) [2]: 57.4% | Residual trypsin activity (%) [12]: 0.1% | Residual trypsin activity (%) [3]: 105% | Residual trypsin activity (%) [13]: 39% | Residual trypsin activity (%) [14]: 103% | Residual trypsin activity (%) [4]: 0.2% | Residual trypsin activity (%) [5]: 108% | Residual trypsin activity (%) [15]: 5.6% | Residual trypsin activity (%) [16]: 0%

CGRQTKSIPPICF (disulfide 1-12 (inferred), synthetic) [BT54]
Residual trypsin activity (%) [2]: 65.8% | Residual trypsin activity (%) [3]: 99.2% | Residual trypsin activity (%) [13]: 24.3% | Residual trypsin activity (%) [14]: 101% | Residual trypsin activity (%) [4]: 0.1% | Residual trypsin activity (%) [5]: 99.9% | Residual trypsin activity (%) [15]: 7.2% | Residual trypsin activity (%) [16]: -0.1%

CARATKSIPPICF (disulfide 1-12 (inferred), synthetic) [BT67]
Residual trypsin activity (%) [10]: 0.1% | Residual trypsin activity (%) [6]: 102% | Residual trypsin activity (%) [7]: 104% | Residual trypsin activity (%) [8]: 49.6% | Residual trypsin activity (%) [9]: 0.1% | Residual trypsin activity (%) [11]: 1.5%

CGRYTKSIPPICF (disulfide 1-12 (inferred), synthetic) [BT53]
Residual trypsin activity (%) [2]: 87.4% | Residual trypsin activity (%) [12]: 0% | Residual trypsin activity (%) [3]: 109% | Residual trypsin activity (%) [14]: 104% | Residual trypsin activity (%) [4]: 0.5% | Residual trypsin activity (%) [5]: 106% | Residual trypsin activity (%) [15]: 63% | Residual trypsin activity (%) [16]: 0.2%
